Assay results as given in the supplement of paper PMC10065799, “High-throughput profiling of sequence recognition by tyrosine kinases and SH2 domains using bacterial peptide display” (eLife, 2023).

Assays:
c-Src SH2 = experiment: SH2 binding enrichment of the phosphorylated peptide, bacterial display (enrichment ratio); higher = better substrate or ligand; peptides without Tyr show the background
Grb2 SH2 = Grb2 SH2 (UniProt P62993); experiment: as above
SHP2-C SH2 = experiment: as above
c-Src = experiment: phosphorylation enrichment, bacterial display (enrichment ratio); higher = better substrate or ligand; peptides without Tyr show the background
Fes = Fes (UniProt P07332); experiment: as above
FGFR3 = FGFR3 (UniProt P22607); experiment: as above
Fyn = Fyn (UniProt P06241); experiment: as above
EPHB1 = EPHB1 (UniProt P54762); experiment: as above
Chain of EPHB1 (P54762 whole entry, looked up): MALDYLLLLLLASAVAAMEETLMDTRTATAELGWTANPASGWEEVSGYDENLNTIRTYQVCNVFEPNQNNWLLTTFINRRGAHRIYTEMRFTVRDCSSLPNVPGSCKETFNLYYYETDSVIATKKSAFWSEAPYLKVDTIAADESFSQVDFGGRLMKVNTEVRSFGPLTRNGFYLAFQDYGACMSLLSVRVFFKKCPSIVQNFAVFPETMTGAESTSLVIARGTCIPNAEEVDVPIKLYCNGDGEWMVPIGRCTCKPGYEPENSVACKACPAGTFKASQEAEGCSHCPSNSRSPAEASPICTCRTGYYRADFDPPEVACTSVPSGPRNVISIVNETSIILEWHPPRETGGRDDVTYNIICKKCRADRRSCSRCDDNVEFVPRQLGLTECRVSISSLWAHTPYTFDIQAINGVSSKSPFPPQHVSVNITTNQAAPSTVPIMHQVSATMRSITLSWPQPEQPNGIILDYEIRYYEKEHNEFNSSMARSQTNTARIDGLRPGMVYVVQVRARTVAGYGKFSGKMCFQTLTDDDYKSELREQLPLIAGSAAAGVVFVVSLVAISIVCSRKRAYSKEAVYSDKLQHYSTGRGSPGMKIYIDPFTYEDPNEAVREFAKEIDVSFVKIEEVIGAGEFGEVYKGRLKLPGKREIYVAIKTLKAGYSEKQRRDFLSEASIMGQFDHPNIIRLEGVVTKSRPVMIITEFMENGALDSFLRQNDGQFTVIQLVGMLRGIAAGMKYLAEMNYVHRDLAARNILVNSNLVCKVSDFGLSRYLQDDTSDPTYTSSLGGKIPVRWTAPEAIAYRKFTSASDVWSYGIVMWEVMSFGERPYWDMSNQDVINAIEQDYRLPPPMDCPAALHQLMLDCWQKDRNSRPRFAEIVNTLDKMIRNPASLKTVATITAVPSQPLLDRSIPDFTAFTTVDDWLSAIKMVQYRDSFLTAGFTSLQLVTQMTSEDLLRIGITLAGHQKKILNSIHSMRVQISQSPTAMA

Hck = Hck (UniProt P08631); experiment: as above
MERTK = MERTK (UniProt Q12866); experiment: as above
Chain of MERTK (Q12866 whole entry, looked up): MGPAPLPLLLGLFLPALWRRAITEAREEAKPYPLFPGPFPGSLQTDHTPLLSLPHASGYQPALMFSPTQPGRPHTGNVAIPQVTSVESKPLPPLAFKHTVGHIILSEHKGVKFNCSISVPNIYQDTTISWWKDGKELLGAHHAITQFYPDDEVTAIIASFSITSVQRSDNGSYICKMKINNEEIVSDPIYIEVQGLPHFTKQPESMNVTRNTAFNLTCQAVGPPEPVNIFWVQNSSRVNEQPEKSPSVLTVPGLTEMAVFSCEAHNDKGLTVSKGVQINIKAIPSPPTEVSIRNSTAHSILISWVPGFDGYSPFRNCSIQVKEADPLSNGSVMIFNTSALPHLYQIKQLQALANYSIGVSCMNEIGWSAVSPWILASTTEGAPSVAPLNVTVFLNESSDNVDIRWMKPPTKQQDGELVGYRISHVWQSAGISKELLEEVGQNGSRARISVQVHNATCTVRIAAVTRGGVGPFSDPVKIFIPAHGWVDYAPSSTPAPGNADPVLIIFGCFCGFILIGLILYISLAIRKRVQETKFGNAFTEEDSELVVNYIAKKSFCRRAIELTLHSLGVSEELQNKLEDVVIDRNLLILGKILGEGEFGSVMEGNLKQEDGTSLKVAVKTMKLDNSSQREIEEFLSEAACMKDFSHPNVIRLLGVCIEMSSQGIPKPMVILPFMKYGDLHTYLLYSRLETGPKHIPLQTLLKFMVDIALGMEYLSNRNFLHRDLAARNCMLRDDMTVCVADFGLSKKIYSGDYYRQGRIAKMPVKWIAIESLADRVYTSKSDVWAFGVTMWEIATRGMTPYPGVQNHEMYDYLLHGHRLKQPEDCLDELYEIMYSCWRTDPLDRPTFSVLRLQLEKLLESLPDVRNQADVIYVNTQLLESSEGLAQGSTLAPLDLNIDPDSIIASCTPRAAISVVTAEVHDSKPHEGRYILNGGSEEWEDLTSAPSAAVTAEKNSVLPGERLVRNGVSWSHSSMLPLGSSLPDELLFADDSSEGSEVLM

EPHB2 = EPHB2 (UniProt P29323); experiment: as above
Chain of EPHB2 (P29323 whole entry, looked up): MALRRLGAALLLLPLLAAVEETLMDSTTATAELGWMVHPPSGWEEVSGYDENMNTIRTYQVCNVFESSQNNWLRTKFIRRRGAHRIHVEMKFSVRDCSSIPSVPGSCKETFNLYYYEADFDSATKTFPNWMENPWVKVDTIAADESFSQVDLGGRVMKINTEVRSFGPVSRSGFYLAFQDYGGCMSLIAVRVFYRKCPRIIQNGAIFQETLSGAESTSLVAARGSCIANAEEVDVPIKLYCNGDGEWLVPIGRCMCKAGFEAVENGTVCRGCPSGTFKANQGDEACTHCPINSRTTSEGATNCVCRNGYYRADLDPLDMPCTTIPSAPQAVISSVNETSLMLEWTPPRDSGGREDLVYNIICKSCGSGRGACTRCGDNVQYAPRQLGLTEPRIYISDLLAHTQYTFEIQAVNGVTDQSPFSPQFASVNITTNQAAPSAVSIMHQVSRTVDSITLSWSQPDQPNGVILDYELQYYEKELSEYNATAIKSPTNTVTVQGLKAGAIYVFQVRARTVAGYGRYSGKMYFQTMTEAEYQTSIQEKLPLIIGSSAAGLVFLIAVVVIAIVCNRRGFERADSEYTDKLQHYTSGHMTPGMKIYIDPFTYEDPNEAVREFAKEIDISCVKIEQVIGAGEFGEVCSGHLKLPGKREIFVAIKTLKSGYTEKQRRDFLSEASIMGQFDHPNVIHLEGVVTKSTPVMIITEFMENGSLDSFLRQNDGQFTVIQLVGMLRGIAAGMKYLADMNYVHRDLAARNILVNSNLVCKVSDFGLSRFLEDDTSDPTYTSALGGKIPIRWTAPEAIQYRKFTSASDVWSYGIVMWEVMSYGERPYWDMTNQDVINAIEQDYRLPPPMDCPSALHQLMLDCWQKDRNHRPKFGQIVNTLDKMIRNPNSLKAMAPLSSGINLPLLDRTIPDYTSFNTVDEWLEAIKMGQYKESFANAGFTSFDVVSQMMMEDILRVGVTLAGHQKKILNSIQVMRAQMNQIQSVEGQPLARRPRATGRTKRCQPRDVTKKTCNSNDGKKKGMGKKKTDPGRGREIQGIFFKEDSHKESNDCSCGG

Jak2 = Jak2 (UniProt O60674); experiment: as above
Chain of Jak2 (O60674 whole entry, looked up): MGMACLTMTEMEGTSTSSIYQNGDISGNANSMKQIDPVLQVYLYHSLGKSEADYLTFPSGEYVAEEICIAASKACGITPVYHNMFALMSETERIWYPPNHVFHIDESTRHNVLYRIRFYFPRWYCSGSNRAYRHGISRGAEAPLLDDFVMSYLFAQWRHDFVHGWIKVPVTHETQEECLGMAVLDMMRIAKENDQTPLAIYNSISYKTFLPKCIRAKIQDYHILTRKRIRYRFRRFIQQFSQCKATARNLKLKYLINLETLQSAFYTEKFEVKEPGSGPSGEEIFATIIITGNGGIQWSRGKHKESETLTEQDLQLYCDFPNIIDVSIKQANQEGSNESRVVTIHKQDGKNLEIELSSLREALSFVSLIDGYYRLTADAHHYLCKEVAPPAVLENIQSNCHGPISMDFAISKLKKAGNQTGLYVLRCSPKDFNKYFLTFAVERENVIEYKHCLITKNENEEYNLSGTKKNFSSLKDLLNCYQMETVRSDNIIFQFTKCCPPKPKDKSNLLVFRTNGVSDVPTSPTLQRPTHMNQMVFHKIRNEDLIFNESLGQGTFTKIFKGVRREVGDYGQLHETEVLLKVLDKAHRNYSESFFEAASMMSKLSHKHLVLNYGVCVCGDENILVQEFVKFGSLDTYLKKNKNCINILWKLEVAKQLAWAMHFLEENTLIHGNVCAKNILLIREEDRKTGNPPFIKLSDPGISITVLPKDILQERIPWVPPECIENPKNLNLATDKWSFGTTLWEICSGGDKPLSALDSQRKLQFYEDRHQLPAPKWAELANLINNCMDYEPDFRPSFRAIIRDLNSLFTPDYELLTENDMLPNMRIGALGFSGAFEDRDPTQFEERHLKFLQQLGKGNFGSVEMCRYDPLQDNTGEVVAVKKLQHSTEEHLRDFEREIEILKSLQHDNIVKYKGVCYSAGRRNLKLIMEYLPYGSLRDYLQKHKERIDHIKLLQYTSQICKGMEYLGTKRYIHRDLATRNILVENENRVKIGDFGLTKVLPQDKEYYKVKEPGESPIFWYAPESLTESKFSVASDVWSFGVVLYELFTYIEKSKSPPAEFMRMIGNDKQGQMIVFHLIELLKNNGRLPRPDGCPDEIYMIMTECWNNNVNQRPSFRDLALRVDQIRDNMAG

FGFR1 = FGFR1 (UniProt P11362); experiment: as above
Chain of FGFR1 (P11362 whole entry, looked up): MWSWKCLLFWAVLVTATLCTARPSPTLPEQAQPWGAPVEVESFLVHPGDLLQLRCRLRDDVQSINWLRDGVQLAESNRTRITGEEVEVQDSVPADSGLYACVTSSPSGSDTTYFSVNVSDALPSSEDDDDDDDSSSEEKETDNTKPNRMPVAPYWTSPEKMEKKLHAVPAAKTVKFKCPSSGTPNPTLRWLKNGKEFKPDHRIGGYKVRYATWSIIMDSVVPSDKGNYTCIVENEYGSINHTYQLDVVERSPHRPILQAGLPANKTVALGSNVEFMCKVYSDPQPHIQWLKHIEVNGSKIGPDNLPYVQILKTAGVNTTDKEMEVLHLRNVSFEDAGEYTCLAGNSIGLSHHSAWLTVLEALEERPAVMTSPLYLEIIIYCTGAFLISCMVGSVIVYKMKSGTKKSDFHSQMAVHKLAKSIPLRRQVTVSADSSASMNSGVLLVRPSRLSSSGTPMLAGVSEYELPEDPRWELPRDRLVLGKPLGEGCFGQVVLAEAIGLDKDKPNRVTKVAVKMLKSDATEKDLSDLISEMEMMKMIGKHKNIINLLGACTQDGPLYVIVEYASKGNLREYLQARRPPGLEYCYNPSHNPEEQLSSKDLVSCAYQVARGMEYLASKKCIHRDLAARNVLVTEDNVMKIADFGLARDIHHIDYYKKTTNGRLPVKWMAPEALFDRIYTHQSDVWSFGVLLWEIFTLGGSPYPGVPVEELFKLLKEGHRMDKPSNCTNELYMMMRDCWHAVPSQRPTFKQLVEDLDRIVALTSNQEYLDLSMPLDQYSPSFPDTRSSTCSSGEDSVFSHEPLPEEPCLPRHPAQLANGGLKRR

Fer (mouse) = experiment: as above
AncSZ = experiment: as above
c-Abl (mouse) = experiment: as above
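Wherever SH2 binding enrichment of the phosphorylated peptide, bacterial display is given: peptide library displayed on the E. coli surface as eCPX fusions, selected cells deep-sequenced, score is each peptide's frequency after selection divided by its frequency in the input.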
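Wherever phosphorylation enrichment, bacterial display is given: 11-residue human phosphosite peptides and single-mutation variants displayed on the E. coli surface, counted by deep sequencing, each peptide's frequency after selection divided by its frequency in the unselected input library; frequency after pTyr selection over input frequency; kinase dosed for 20-30% of maximal phosphorylation in three min.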

| Sequence | SH2 binding enrichment (c-Src SH2) | SH2 binding enrichment (Grb2 SH2) | SH2 binding enrichment (SHP2-C SH2) | phosphorylation enrichment (c-Src) | phosphorylation enrichment (Fes) | phosphorylation enrichment (FGFR3) | phosphorylation enrichment (Fyn) | phosphorylation enrichment (EPHB1) | phosphorylation enrichment (Hck) | phosphorylation enrichment (MERTK) | phosphorylation enrichment (EPHB2) | phosphorylation enrichment (Jak2) | phosphorylation enrichment (FGFR1) | phosphorylation enrichment (Fer (mouse)) | phosphorylation enrichment (AncSZ) | phosphorylation enrichment (c-Abl (mouse)) |
| --- | --- | --- | --- | --- | --- | --- | --- | --- | --- | --- | --- | --- | --- | --- | --- | --- |
| AHPGEYGAEAL [HBA1_Y25_A22P] | 0.508 | 0.728 | 0.707 | 0.408 | 0.768 | 0.559 | 0.488 | 0.516 | 0.486 | 0.443 | 0.51 | 0.563 | 0.453 | 0.425 | 0.801 | 0.634 |
| PELINYHQHYS [BTK_Y361_N365Y] | 0.658 | 1.08 | 1.07 | 0.5 | 0.688 | 0.585 | 0.662 | 1.23 | 0.356 | 0.319 | 1.68 | 0.577 | 0.769 | 0.427 | 0.742 | 0.563 |
| WKKKIYEESST [MOCS2_Y170_E168K] | 0.415 | 0.62 | 0.481 | 0.448 | 1.05 | 0.813 | 0.534 | 0.393 | 0.511 | 0.432 | 0.526 | 0.794 | 0.423 | 0.449 | 0.818 | 0.761 |
| RMSSSYPTGLA [ADM_Y52] | 0.422 | 0.714 | 0.406 | 0.334 | 0.542 | 0.613 | 0.525 | 0.37 | 0.509 | 0.433 | 0.447 | 0.473 | 0.562 | 0.502 | 0.525 | 0.518 |
| AKKMKYFEGVS [PRKDC_Y682_I680M] | 0.496 | 0.725 | 0.539 | 0.394 | 0.559 | 0.434 | 0.419 | 0.393 | 0.351 | 0.318 | 0.3 | 0.499 | 0.395 | 0.311 | 0.493 | 0.404 |
| RRGLLYDSDEE [MCM2_Y137] | 0.606 | 0.661 | 0.81 | 0.763 | 1.13 | 1.3 | 1.29 | 0.796 | 1.16 | 0.855 | 0.642 | 0.77 | 0.898 | 1.08 | 1.25 | 0.59 |
| LSAPWYLNRIS [HEXA_Y421] | 0.697 | 1.19 | 1.19 | 0.362 | 0.797 | 0.533 | 0.371 | 0.562 | 0.46 | 0.331 | 0.511 | 0.699 | 0.429 | 0.359 | 0.791 | 0.447 |
| QGIIIYRAAYF [SLC25A4_Y187] | 0.515 | 1.01 | 0.642 | 0.544 | 1.91 | 1.39 | 0.574 | 0.945 | 0.639 | 0.541 | 0.767 | 1.13 | 0.688 | 0.773 | 1.32 | 1.28 |
| ESMQSYDLDYP [UNC13B_Y243_D238E] | 0.851 | 0.681 | 0.538 | 0.544 | 1.26 | 0.686 | 0.536 | 0.651 | 0.615 | 0.466 | 0.534 | 0.991 | 0.698 | 0.495 | 1.16 | 0.933 |
| ALAHEYHGGGG [HBB_Y146_K145E] | 0.696 | 0.776 | 0.627 | 0.41 | 0.461 | 0.361 | 0.361 | 0.397 | 0.425 | 0.287 | 0.314 | 0.599 | 0.41 | 0.354 | 0.469 | 0.493 |
| IRDENYGEGSS [ACO2_Y665_G661R] | 0.532 | 0.685 | 1.01 | 0.481 | 0.936 | 0.559 | 0.421 | 0.364 | 0.925 | 0.46 | 0.422 | 0.733 | 0.437 | 0.588 | 0.917 | 0.639 |
| SSVPDYLAAVD [GLB1_Y154_D151V] | 0.523 | 0.774 | 0.816 | 0.381 | 1.19 | 1.17 | 0.582 | 0.631 | 0.517 | 0.463 | 0.683 | 1.11 | 0.534 | 0.568 | 1.63 | 0.801 |
| SPDMLYQFLKQ [RPAP3_Y567_YF] | 0.499 | 0.782 | 0.683 | 1.77 | 0.971 | 1.35 | 0.792 | 0.943 | 7.82 | 4.98 | 0.749 | 0.679 | 1.7 | 7.72 | 0.997 | 0.695 |
| NCFKFYMSDDI [ATRX_Y204_YF] | 0.689 | 0.973 | 0.721 | 0.447 | 1.23 | 0.745 | 0.386 | 0.605 | 0.512 | 0.394 | 0.53 | 1.17 | 0.565 | 0.521 | 1.2 | 0.95 |
| DFEGLYQEGGG [TMEM159_Y159_E154D] | 0.453 | 0.67 | 0.461 | 0.923 | 1.17 | 0.817 | 0.874 | 0.746 | 1.22 | 0.453 | 0.791 | 0.88 | 0.761 | 0.64 | 1.23 | 0.569 |
| KNSFKYYMSDD [ATRX_Y203_C200S] | 0.708 | 0.848 | 0.661 | 0.44 | 1.02 | 0.604 | 0.468 | 0.507 | 0.477 | 0.479 | 0.531 | 0.947 | 0.486 | 0.405 | 0.92 | 0.671 |
| SKEPFYVHCIK [MYO1D_Y586_R588H_YF] | 0.574 | 0.981 | 0.898 | 0.418 | 1.07 | 0.682 | 0.44 | 0.614 | 0.528 | 0.433 | 0.577 | 0.864 | 0.484 | 0.467 | 1.08 | 0.631 |
| GSETPYMDRTP [ESS2_Y335_V336M] | 0.49 | 1.05 | 0.788 | 0.454 | 0.715 | 0.413 | 0.344 | 0.571 | 0.365 | 0.365 | 0.413 | 0.499 | 0.431 | 0.363 | 0.662 | 0.424 |
| IKAGAYDFPSL [CAMK2A_Y230_P235L] | 4.76 | 0.774 | 0.626 | 0.388 | 0.647 | 0.484 | 0.877 | 0.418 | 0.382 | 5.66 | 0.493 | 0.603 | 0.41 | 1.03 | 0.761 | 0.541 |
| INITIYGKTFC [EFHC1_Y177_R182C] | 0.538 | 0.881 | 0.737 | 0.597 | 1.48 | 0.909 | 0.532 | 0.656 | 0.505 | 0.548 | 0.684 | 1.38 | 0.581 | 0.617 | 1.22 | 0.982 |
| YCRIMYDIFPF [INTS13_Y67] | 1.64 | 1.01 | 1.12 | 2.98 | 1.48 | 2.89 | 2.55 | 6.02 | 3.78 | 4.92 | 5.07 | 1.51 | 3.47 | 2.06 | 1.85 | 1.7 |
| QDGYSYLSRQM [LDLR_Y847_P848L] | 8.2 | 0.747 | 2.11 | 0.464 | 0.94 | 0.664 | 0.305 | 0.517 | 0.646 | 1.26 | 0.467 | 0.784 | 0.995 | 0.562 | 0.71 | 0.541 |
| HELYVYKSDEN [DOCK3_Y548_C550S] | 0.584 | 1.04 | 0.772 | 0.917 | 2.14 | 1.32 | 0.849 | 1.28 | 0.835 | 0.487 | 0.912 | 1.75 | 0.684 | 0.879 | 1.7 | 1.19 |
| QRDSSYFWEIE [RAF1_Y340_YF] | 0.98 | 0.936 | 0.917 | 0.712 | 1.92 | 1.25 | 0.966 | 0.776 | 0.934 | 0.774 | 0.968 | 3.31 | 1.04 | 0.813 | 2.48 | 0.989 |
| QQPGPYDRPGA [HNRNPH2_Y210_R206Q] | 0.857 | 0.905 | 0.689 | 0.577 | 1.39 | 0.619 | 0.565 | 0.528 | 0.662 | 0.599 | 0.493 | 0.643 | 0.66 | 0.551 | 0.683 | 0.567 |
| NLTVNYKKNLI [SQOR_Y259] | 0.456 | 0.916 | 0.61 | 0.43 | 1.05 | 0.461 | 0.351 | 0.486 | 0.389 | 0.435 | 0.401 | 0.619 | 0.427 | 0.427 | 0.669 | 0.495 |
| AEPTGYSAELS [EZR_Y499] | 0.457 | 0.721 | 0.525 | 0.488 | 1.01 | 0.636 | 0.524 | 0.513 | 0.616 | 0.485 | 0.583 | 1.08 | 0.528 | 0.535 | 1.03 | 0.799 |
| IPPRRYFCSGV [STAMBP_Y36_R38C] | 0.416 | 0.691 | 0.621 | 0.393 | 0.739 | 0.447 | 0.478 | 0.342 | 0.464 | 0.432 | 0.466 | 0.667 | 0.428 | 0.403 | 0.642 | 0.593 |
| EDEGLYMVRVP [MYOM3_Y343] | 0.472 | 0.776 | 0.628 | 3.41 | 1.43 | 0.736 | 3.03 | 1.74 | 4.63 | 1.79 | 1.71 | 1.24 | 0.56 | 1.89 | 1.58 | 0.812 |
